Data set [1] addresses Trypanosoma cruzi phosphofructokinase (T. cruzi (strain CL Brener)). Description: SEC; preparative gel filtration of IMAC eluate on HiPrep Sephacryl S-200 16/60; 20 mM TEA, 5 mM MgCl2, 50 mM KCl, 10% glycerol, pH 7.4; tetrameric fractions collected. A general note: In gel filtration, larger molecules generally elute earlier.
Data set [2] concerns the molecule itself. Description: SEC; preparative size exclusion of IMAC eluate on HiPrep Sephacryl S300 16/600; 50 mM TEA, 500 mM KCl, 5 mM MgCl2, 1 mM TCEP, 1 mM ATP/F6P, 10% glycerol, pH 7.4; fractions corresponding to the tetramer (340 kDa) pooled.
Data set [3] concerns the molecule itself. Kind of data set: SEC; preparative size exclusion of IMAC eluate on Superose 6 10/300; 50 mM TEA, 500 mM KCl, 5 mM MgCl2, 1 mM TCEP, 1 mM ATP/F6P, 10% glycerol, pH 8; fractions corresponding to the tetramer (340 kDa) pooled.
Data set [4] deals with the molecule itself. Kind of data set: SEC; preparative gel filtration of IMAC eluate on HiPrep Sephacryl S-200 16/60; 20 mM TEA, 5 mM MgCl2, 50 mM KCl, 10% glycerol, pH 7.4; tetrameric fractions collected.

The term stoichiometry N denotes a count of units in the complex or per binding partner. In the case of “Trypanosoma cruzi phosphofructokinase (enzyme)”, the stoichiometry N in data set [1] worked out at 4.

B1: human phosphofructokinase isoform PFK-M (enzyme, UniProt P08237 1-780, looked up)
chain: MTHEEHHAAKTLGIGKAIAVLTSGGDAQGMNAAVRAVVRVGIFTGARVFFVHEGYQGLVDGGDHIKEATWESVSMMLQLGGTVIGSARCKDFREREGRLRAAYNLVKRGITNLCVIGGDGSLTGADTFRSEWSDLLSDLQKAGKITDEEATKSSYLNIVGLVGSIDNDFCGTDMTIGTDSALHRIMEIVDAITTTAQSHQRTFVLEVMGRHCGYLALVTSLSCGADWVFIPECPPDDDWEEHLCRRLSETRTRGSRLNIIIVAEGAIDKNGKPITSEDIKNLVVKRLGYDTRVTVLGHVQRGGTPSAFDRILGSRMGVEAVMALLEGTPDTPACVVSLSGNQAVRLPLMECVQVTKDVTKAMDEKKFDEALKLRGRSFMNNWEVYKLLAHVRPPVSKSGSHTVAVMNVGAPAAGMNAAVRSTVRIGLIQGNRVLVVHDGFEGLAKGQIEEAGWSYVGGWTGQGGSKLGTKRTLPKKSFEQISANITKFNIQGLVIIGGFEAYTGGLELMEGRKQFDELCIPFVVIPATVSNNVPGSDFSVGADTALNTICTTCDRIKQSAAGTKRRVFIIETMGGYCGYLATMAGLAAGADAAYIFEEPFTIRDLQANVEHLVQKMKTTVKRGLVLRNEKCNENYTTDFIFNLYSEEGKGIFDSRKNVLGHMQQGGSPTPFDRNFATKMGAKAMNWMSGKIKESYRNGRIFANTPDSGCVLGMRKRALVFQPVAELKDQTDFEHRIPKEQWWLKLRPILKILAKYEIDLDTSDHAHLEHITRKRSGEAAV
notes: human ATP-dependent phosphofructokinase, muscle type (PFK-M1), yeast codon optimised cDNA; also called PFK-M1; source: PFK-deficient Saccharomyces cerevisiae, plasmid pJJH71, purified (nickel IMAC, Sephacryl S300 size exclusion)
For the molecule B1, the “stoichiometry N” value in data set [2] was 4.

B2: human phosphofructokinase isoform PFK-P (enzyme, UniProt Q01813 1-784, looked up)
chain: MDADDSRAPKGSLRKFLEHLSGAGKAIGVLTSGGDAQGMNAAVRAVVRMGIYVGAKVYFIYEGYQGMVDGGSNIAEADWESVSSILQVGGTIIGSARCQAFRTREGRLKAACNLLQRGITNLCVIGGDGSLTGANLFRKEWSGLLEELARNGQIDKEAVQKYAYLNVVGMVGSIDNDFCGTDMTIGTDSALHRIIEVVDAIMTTAQSHQRTFVLEVMGRHCGYLALVSALACGADWVFLPESPPEEGWEEQMCVKLSENRARKKRLNIIIVAEGAIDTQNKPITSEKIKELVVTQLGYDTRVTILGHVQRGGTPSAFDRILASRMGVEAVIALLEATPDTPACVVSLNGNHAVRLPLMECVQMTQDVQKAMDERRFQDAVRLRGRSFAGNLNTYKRLAIKLPDDQIPKTNCNVAVINVGAPAAGMNAAVRSAVRVGIADGHRMLAIYDGFDGFAKGQIKEIGWTDVGGWTGQGGSILGTKRVLPGKYLEEIATQMRTHSINALLIIGGFEAYLGLLELSAAREKHEEFCVPMVMVPATVSNNVPGSDFSIGADTALNTITDTCDRIKQSASGTKRRVFIIETMGGYCGYLANMGGLAAGADAAYIFEEPFDIRDLQSNVEHLTEKMKTTIQRGLVLRNESCSENYTTDFIYQLYSEEGKGVFDCRKNVLGHMQQGGAPSPFDRNFGTKISARAMEWITAKLKEARGRGKKFTTDDSICVLGISKRNVIFQPVAELKKQTDFEHRIPKEQWWLKLRPLMKILAKYKASYDVSDSGQLEHVQPWSV
notes: human ATP-dependent phosphofructokinase, platelet type (PFK-P1), yeast codon optimised cDNA; also called PFK-P1; source: PFK-deficient Saccharomyces cerevisiae, plasmid pJJH71, purified (nickel IMAC, Superose 6 size exclusion)
For the molecule B2, the “stoichiometry N” value in data set [3] stood at 4.

B3: human phosphofructokinase isoform PFK-L (enzyme, UniProt P17858 1-780, looked up)
chain: MAAVDLEKLRASGAGKAIGVLTSGGDAQGMNAAVRAVTRMGIYVGAKVFLIYEGYEGLVEGGENIKQANWLSVSNIIQLGGTIIGSARCKAFTTREGRRAAAYNLVQHGITNLCVIGGDGSLTGANIFRSEWGSLLEELVAEGKISETTARTYSHLNIAGLVGSIDNDFCGTDMTIGTDSALHRIMEVIDAITTTAQSHQRTFVLEVMGRHCGYLALVSALASGADWLFIPEAPPEDGWENFMCERLGETRSRGSRLNIIIIAEGAIDRNGKPISSSYVKDLVVQRLGFDTRVTVLGHVQRGGTPSAFDRILSSKMGMEAVMALLEATPDTPACVVTLSGNQSVRLPLMECVQMTKEVQKAMDDKRFDEATQLRGGSFENNWNIYKLLAHQKPPKEKSNFSLAILNVGAPAAGMNAAVRSAVRTGISHGHTVYVVHDGFEGLAKGQVQEVGWHDVAGWLGRGGSMLGTKRTLPKGQLESIVENIRIYGIHALLVVGGFEAYEGVLQLVEARGRYEELCIVMCVIPATISNNVPGTDFSLGSDTAVNAAMESCDRIKQSASGTKRRVFIVETMGGYCGYLATVTGIAVGADAAYVFEDPFNIHDLKVNVEHMTEKMKTDIQRGLVLRNEKCHDYYTTEFLYNLYSSEGKGVFDCRTNVLGHLQQGGAPTPFDRNYGTKLGVKAMLWLSEKLREVYRKGRVFANAPDSACVIGLKKKAVAFSPVTELKKDTDFEHRMPREQWWLSLRLMLKMLAQYRISMAAYVSGELEHVTRRTLSMDKGF
notes: human ATP-dependent phosphofructokinase, liver type (PFK-L1), yeast codon optimised cDNA; also called PFK-L1; source: PFK-deficient Saccharomyces cerevisiae, plasmid pJJH71, purified (nickel IMAC, Superose 6 size exclusion)
Regarding B3, the “stoichiometry N” value in data set [3] stood at 4.

B4: Trypanosoma brucei phosphofructokinase (enzyme, T. b. brucei (strain Lister 427), UniProt O15648 1-487, looked up)
chain: MAVESRSRVTSKLVKAHRAMLNSVTQEDLKVDRLPGADYPNPSKKYSSRTEFRDKTDYIMYNPRPRDEPSSENPVSVSPLLCELAAARSRIHFNPTETTIGIVTCGGICPGLNDVIRSITLTGINVYNVKRVIGFRFGYWGLSKKGSQTAIELHRGRVTNIHHYGGTILGSSRGPQDPKEMVDTLERLGVNILFTVGGDGTQRGALVISQEAKRRGVDISVFGVPKTIDNDLSFSHRTFGFQTAVEKAVQAIRAAYAEAVSANYGVGVVKLMGRDSGFIAAQAAVASAQANICLVPENPISEQEVMSLLERRFCHSRSCVIIVAEGFGQDWGRGSGGYDASGNKKLIDIGVILTEKVKAFLKANKSRYPDSTVKYIDPSYMIRACPPSANDALFCATLATLAVHEAMAGATGCIIAMRHNNYILVPIKVATSVRRVLDLRGQLWRQVREITVDLGSDVRLARKLEIRRELEAINRNRDRLHEELAKL
notes: ATP-dependent phosphofructokinase of Trypanosoma brucei brucei, DNA source strain Lister 427, codon optimised for E. coli; Tag removal was only partially successful; the tagged protein was used for all experiments; also called TbPFK; T. brucei PFK; source: E. coli C41 (DE3), pET28a, purified (cobalt IMAC, Sephacryl S-200 gel filtration); not shown: His6, N-terminal, kept
Consider B4, for which the “stoichiometry N” value in data set [4] worked out at 4.
